Source: patent US10500249B2, “Compositions and methods for preventing or treating diseases, conditions, or processes characterized by aberrant fibroblast proliferation and extracellular matrix deposition” (MOERAE MATRIX, INC., priority 2014, dated 2019)

How the values were obtained:
Assay in all cases: Kinase Profiling Assay
Type in all cases: biochemical
Conditions in all cases: 100 μM
Abl(T315I) (h) = Abl(T315I) (h) (Homo sapiens, UniProt P00519, T315I)
In short: (§1)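 In this 266-kinase specificity panel, every measurement was duplicated. Transfer of labeled phosphate from ATP to a cationic substrate was quantified after the substrate adhered to an anionic filter membrane and was scintillation-counted, then related to a full-activity control.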

CaMKIV (h) = molecular target: T1, CaMKIV (h) (Homo sapiens, UniProt Q16566)
T1 construct: purchased Millipore
T1 sequence (Q16566 1-473): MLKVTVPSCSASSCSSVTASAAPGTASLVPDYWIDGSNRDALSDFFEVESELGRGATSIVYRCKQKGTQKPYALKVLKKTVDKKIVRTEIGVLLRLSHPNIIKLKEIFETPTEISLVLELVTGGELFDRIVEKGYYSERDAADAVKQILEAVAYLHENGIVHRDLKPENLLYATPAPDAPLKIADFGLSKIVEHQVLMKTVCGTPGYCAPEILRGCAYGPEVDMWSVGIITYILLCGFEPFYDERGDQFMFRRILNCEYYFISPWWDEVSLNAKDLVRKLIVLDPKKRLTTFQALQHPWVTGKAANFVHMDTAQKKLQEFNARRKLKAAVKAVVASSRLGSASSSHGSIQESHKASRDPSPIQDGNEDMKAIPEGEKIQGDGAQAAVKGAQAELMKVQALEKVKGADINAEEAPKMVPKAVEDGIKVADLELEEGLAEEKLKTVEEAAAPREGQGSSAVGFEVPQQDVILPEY
In short: as §1

Ret(V804M) (h) = Ret(V804M) (h) (Homo sapiens, UniProt P07949, V804M)
In short: as §1

SAPK4 (h) = molecular target: T2, SAPK4 (h) (Homo sapiens, UniProt O15264)
T2 sequence (O15264 1-365): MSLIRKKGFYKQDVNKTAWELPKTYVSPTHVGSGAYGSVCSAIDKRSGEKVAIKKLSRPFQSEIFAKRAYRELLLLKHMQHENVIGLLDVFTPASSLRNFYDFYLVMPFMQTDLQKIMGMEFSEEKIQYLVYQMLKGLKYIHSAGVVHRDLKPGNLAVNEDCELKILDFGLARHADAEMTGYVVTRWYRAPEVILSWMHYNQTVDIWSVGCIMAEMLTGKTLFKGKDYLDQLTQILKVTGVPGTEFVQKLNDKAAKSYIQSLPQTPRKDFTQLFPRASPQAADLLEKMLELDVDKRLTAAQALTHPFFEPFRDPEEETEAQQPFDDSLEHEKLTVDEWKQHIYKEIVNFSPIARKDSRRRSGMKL
In short: as §1

Ros (h) = Ros (h) (Homo sapiens, UniProt P08922)
Chain of Ros (h) (P08922 28-2347): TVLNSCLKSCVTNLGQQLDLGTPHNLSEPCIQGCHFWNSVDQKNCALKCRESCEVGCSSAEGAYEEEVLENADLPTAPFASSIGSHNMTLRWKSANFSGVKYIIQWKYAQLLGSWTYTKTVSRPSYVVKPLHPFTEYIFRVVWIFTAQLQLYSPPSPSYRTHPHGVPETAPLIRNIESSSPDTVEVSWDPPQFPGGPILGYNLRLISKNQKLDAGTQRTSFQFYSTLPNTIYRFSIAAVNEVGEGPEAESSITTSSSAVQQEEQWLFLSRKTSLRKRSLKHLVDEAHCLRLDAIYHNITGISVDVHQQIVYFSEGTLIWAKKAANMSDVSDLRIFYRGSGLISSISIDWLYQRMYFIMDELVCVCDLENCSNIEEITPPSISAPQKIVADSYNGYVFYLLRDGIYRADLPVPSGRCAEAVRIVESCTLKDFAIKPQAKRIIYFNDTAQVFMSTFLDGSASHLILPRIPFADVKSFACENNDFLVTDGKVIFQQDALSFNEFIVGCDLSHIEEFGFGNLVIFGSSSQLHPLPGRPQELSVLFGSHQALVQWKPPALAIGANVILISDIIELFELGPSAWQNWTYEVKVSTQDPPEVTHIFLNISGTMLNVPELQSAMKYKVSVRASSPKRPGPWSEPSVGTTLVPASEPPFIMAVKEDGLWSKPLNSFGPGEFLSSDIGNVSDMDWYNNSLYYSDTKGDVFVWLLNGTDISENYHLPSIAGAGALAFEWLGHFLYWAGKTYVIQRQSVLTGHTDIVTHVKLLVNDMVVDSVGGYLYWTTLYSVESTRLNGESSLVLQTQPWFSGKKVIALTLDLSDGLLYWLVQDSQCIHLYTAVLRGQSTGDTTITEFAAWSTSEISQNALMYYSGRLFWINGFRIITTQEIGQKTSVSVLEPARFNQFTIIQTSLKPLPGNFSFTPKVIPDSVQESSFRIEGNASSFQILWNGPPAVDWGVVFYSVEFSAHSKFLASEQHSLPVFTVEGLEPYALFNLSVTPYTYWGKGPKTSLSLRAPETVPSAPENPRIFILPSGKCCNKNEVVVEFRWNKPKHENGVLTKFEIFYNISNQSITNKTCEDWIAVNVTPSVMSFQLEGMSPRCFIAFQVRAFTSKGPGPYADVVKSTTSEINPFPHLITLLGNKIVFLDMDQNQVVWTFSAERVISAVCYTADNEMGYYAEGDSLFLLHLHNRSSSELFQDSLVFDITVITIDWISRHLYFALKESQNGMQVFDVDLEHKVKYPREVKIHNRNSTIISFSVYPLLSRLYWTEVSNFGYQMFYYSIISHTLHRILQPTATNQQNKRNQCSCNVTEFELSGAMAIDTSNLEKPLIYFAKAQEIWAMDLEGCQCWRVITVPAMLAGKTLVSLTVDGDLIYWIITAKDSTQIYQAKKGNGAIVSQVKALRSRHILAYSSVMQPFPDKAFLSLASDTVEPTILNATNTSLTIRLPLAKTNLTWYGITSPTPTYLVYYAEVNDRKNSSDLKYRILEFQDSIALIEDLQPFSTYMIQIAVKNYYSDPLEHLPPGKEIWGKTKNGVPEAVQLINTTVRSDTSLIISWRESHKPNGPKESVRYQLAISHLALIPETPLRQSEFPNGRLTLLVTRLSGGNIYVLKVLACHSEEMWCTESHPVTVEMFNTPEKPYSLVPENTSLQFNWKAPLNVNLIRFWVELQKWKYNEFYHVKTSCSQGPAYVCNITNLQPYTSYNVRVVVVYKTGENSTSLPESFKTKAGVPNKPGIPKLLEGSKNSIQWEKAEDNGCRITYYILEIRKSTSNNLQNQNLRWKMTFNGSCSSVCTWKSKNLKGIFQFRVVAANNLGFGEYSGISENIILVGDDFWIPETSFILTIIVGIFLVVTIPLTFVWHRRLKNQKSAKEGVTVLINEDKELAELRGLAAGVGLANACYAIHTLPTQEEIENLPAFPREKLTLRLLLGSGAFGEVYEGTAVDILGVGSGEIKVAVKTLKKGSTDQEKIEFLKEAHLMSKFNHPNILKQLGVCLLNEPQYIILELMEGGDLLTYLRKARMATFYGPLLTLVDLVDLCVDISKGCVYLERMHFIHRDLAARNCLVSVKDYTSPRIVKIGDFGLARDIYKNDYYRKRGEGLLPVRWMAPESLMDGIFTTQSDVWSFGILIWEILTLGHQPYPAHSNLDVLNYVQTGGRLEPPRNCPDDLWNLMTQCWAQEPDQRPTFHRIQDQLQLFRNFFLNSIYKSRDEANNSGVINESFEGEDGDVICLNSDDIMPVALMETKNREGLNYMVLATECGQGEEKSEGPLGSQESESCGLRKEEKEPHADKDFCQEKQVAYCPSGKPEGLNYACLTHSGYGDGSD
In short: as §1

Axl (h) = Axl (h) (Homo sapiens, UniProt P30530)
In short: as §1

TBK1 (h) = molecular target: T3, TBK1 (h) (Homo sapiens, UniProt Q9UHD2)
T3 sequence (Q9UHD2 1-729): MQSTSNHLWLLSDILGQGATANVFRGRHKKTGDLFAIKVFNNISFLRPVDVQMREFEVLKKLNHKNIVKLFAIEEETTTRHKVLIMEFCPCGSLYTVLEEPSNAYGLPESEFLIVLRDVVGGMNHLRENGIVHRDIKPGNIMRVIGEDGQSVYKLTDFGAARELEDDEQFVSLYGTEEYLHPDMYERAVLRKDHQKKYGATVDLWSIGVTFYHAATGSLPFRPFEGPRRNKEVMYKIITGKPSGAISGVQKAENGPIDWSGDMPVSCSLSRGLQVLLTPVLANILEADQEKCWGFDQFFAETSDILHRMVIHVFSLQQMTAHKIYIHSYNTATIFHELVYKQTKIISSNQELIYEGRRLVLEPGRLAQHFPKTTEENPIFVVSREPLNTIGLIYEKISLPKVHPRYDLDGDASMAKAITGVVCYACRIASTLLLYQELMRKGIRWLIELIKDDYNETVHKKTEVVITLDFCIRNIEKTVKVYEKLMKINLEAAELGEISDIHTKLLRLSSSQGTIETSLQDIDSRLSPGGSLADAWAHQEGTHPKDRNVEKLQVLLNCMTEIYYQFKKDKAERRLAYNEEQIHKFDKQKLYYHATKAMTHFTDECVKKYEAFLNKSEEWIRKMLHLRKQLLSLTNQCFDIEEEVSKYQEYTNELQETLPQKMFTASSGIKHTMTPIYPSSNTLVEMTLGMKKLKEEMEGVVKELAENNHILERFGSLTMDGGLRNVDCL
In short: as §1

NLK (h) = molecular target: T4, NLK (h) (Homo sapiens, UniProt Q9UBE8)
T4 construct: purchased Millipore
T4 sequence (Q9UBE8 1-527): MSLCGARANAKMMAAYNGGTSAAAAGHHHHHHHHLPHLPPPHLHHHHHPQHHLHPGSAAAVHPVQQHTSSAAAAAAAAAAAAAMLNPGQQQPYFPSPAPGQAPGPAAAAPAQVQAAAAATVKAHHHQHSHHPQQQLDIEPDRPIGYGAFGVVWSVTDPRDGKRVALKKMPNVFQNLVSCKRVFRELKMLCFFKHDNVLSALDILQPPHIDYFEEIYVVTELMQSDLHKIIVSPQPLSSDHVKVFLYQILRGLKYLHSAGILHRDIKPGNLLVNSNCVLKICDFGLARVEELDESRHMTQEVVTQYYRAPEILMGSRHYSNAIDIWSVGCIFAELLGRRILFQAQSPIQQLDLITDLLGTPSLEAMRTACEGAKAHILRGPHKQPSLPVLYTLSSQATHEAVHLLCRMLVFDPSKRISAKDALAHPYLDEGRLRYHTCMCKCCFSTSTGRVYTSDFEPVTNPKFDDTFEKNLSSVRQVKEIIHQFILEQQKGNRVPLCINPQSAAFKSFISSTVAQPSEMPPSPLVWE
In short: as §1

Fgr (h) = Fgr (h) (Homo sapiens, UniProt P09769)
In short: as §1

CK2 (h) = molecular target: T5, CK2 (h) (Homo sapiens, UniProt P68400)
T5 construct: purchased Millipore
T5 sequence (P68400 whole entry): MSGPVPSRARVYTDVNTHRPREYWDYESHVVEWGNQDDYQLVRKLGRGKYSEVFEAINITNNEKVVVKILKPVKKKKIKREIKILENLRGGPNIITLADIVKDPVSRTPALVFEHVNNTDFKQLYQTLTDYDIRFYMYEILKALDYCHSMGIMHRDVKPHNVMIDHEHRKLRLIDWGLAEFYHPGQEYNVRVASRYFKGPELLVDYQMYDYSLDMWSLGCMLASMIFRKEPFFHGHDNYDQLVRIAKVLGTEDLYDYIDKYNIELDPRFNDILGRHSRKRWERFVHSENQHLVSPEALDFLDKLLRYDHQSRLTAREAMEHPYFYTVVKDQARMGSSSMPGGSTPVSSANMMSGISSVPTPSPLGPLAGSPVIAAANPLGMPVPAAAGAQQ
T5 sequence (P67870 whole entry partner): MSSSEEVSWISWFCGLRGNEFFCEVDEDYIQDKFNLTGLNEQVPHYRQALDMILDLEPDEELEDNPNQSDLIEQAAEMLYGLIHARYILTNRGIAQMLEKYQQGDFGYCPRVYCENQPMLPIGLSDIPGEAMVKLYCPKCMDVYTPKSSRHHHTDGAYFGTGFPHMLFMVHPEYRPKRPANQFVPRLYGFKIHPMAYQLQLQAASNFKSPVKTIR
In short: as §1

Lck (h) activated = Lck (h) activated (Homo sapiens, UniProt P06239)
Chain of Lck (h) activated (P06239 whole entry): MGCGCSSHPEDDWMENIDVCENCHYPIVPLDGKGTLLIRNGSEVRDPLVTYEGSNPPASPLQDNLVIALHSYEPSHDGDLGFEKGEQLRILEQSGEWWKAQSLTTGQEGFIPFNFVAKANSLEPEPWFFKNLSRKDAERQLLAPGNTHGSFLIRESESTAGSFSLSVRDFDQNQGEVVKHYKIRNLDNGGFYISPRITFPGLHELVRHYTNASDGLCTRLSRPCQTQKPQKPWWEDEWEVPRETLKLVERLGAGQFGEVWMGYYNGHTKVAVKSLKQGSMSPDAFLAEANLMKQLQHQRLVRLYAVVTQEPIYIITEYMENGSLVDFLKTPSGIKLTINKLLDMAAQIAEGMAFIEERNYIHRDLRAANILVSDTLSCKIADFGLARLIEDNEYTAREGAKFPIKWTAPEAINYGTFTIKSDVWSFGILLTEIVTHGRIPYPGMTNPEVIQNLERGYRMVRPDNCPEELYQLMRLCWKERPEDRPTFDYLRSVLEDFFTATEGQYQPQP
In short: as §1

SRPK2 (h) = SRPK2 (h) (Homo sapiens, UniProt P78362)
Chain of SRPK2 (h) (P78362 whole entry): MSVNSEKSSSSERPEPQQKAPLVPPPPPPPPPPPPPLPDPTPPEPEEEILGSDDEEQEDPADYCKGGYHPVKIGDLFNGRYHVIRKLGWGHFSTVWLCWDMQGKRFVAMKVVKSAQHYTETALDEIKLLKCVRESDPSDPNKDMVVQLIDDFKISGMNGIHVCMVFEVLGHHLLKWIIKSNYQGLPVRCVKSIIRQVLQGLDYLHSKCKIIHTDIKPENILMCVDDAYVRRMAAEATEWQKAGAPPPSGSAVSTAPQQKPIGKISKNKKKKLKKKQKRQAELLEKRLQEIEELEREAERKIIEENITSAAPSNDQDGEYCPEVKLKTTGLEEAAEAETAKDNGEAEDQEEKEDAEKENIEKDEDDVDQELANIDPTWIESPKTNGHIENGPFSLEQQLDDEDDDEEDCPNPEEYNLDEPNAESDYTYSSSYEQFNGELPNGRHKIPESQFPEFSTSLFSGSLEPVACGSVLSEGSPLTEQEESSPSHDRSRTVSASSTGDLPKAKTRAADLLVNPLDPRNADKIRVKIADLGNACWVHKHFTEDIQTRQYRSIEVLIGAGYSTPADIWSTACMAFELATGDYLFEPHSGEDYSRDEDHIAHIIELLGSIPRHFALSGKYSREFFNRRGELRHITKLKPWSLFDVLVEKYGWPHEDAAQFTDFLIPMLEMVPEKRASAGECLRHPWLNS
In short: as §1

Row | Sequence | % activity (Abl(T315I) (h)) [%] | % activity (CaMKIV (h)) [%] | % activity (Ret(V804M) (h)) [%] | % activity (SAPK4 (h)) [%] | % activity (Ros (h)) [%] | % activity (Axl (h)) [%] | % activity (TBK1 (h)) [%] | % activity (NLK (h)) [%] | % activity (Fgr (h)) [%] | % activity (CK2 (h)) [%] | % activity (Lck (h) activated) [%] | % activity (SRPK2 (h)) [%]
1 | FAKLAARLYRKALARQLGVAA [MMI-0300] | 97 | 17 | 95 | 96 | 95 | 52 | 37 | 87 | 60 | 90 | 243 | –
2 | HRRIKAWLKKIKALARQLGVAA (Mammalian) [MMI-0500] | 16 | −1 | 36 | 48 | 150 | 12 | 16 | 19 | – | 93 | 76 | 80
3 | KAFAKLAARLYRKALARQLGVAA [MMI-0400] | – | 18 | 87 | 91 | 99 | 41 | 39 | 90 | 47 | 101 | 216 | 97
4 | YARAAARQARAKALNRQLGVA (Mammalian) [MMI-0200] | 108 | 71 | – | – | 86 | 99 | 98 | – | 71 | 83 | 90 | 100
